First the molecules themselves.
B1: Transforming growth factor beta-induced protein (TGFBIp) from human corneal stroma extract (natural protein, human (endogenous in corneal stroma), UniProt Q15582 24-683, looked up)
chain: GPAKSPYQLVLQHSRLRGRQHGPNVCAVQKVIGTNRKYFTNCKQWYQRKICGKSTVISYECCPGYEKVPGEKGCPAALPLSNLYETLGVVGSTTTQLYTDRTEKLRPEMEGPGSFTIFAPSNEAWASLPAEVLDSLVSNVNIELLNALRYHMVGRRVLTDELKHGMTLTSMYQNSNIQIHHYPNGIVTVNCARLLKADHHATNGVVHLIDKVISTITNNIQQIIEIEDTFETLRAAVAASGLNTMLEGNGQYTLLAPTNEAFEKIPSETLNRILGDPEALRDLLNNHILKSAMCAEAIVAGLSVETLEGTTLEVGCSGDMLTINGKAIISNKDILATNGVIHYIDELLIPDSAKTLFELAAESDVSTAIDLFRQAGLGNHLSGSERLTLLAPLNSVFKDGTPPIDAHTRNLLRNHIIKDQLASKYLYHGQTLETLGGKKLRVFVYRNSLCIENSCIAAHDKRGRYGTLFTMDRVLTPPMGTVMDVLKGDNRFSMLVAAIQSAGLTETLNREGVYTVFAPTNEAFRALPPRERSRLLGDAKELANILKYHIGDEILVSGGIGALVRLKSLQGDKLEVSLKNNVVSVNKEPVAEPDIMATNGVVHVITNVLQPPANRPQERGDELADSALEIFKQASAFSRASQRSVRLAPVYQKLLERMKH
B2: Recombinant WT TGFBIp (natural protein, human, UniProt Q15582 24-683, looked up)
chain: B1 chain
B3: A546T FAS1-4 (fourth fasciclin 1 domain of TGFBIp with the A546T substitution) (domain or fragment, human)
chain: AGMGTVMDVLKGDNRFSMLVAAIQSAGLTETLNREGVYTVFAPTNETFRALPPRERSRLLGDAKELANILKYHIGDEILVSGGIGALVRLKSLQGDKLEVSLKNNVVSVNKEPVAEPDIMATNGVVHVITNVLQPPANRPQERGDELADSALEIFKQA
B4: Y571-R588 peptide of TGFBIp (peptide, UniProt Q15582 571-588, looked up)
peptide: YHIGDEILVSGGIGALVR

Data set [1] deals with the molecule itself. The experiment in a line: ThT fluorescence fibrillation assay + TEM.
For the data set “Recombinant WT TGFBIp”, the target named is B2. In words: pull-down.
Data set [2] has as its target B4. In words: pull-down.
For data set [3], the target named is B4. The experiment in a line: pull-down.
Data set [4] deals with the molecule itself. In words: centrifugation and limited trypsin proteolysis of fibrils.

Read-outs that look alike come from different tables or passages of the source.

Turning to FSMLVAAIQSAGLTETLNR (peptide, UniProt Q15582 515-533, looked up) [F515-R533 peptide of TGFBIp], the binding result (in data set [1]; with Recombinant WT TGFBIp) was “binds” throughout.
As to B1, the “amount of TGFBIp bound, fold against F515-R533 fibrils” value in data set [2] was approximately 3 times.
On to B2, for which the “amount of TGFBIp bound, fold against F515-R533 fibrils” value in data set [3] is approximately 1.6 times.
In the case of B3, the binding result (with Recombinant WT TGFBIp; in data set [4]) was “binds” each time.
Consider B4, for which, in data set [1], the binding result is listed as “binds”.

The record behind these values is paper PMC4789106 (Biochemistry, 2015).
